According to PMC8211825, “Molecular mechanism of calcium induced trimerization of C1q-like domain of otolin-1 from human and zebrafish” (Scientific Reports, 2021):
Where a chain is given by its changes, count along the chain named. Numbers in names are those of the source.

B1: hOtolC1q E417A (domain or fragment, human, UniProt A6NHN0 338-473, looked up)
chain: ARVPRSAFSAGLSKPFPPPNIPIKFEKILYNDQGNYSPVTGKFNCSIPGTYVFSYHITVRGRPARISLVAQNKKQFKSRATLYGQEIDQASLLVILKLSAGDQVWLEVSKDWNGVYVSAEDDSIFTGFLLYPEETS
notes: gC1q (C1q-like) domain of human otolin-1, UniProt A6NHN0, with E417A
B2: hOtolC1q E417A D425A (domain or fragment, human, UniProt A6NHN0 338-473, looked up)
chain: B1 chain with D88A
notes: gC1q (C1q-like) domain of human otolin-1, UniProt A6NHN0, with E417A and D425A; also called double mutant
B3: hOtolC1q D425A (domain or fragment, human, UniProt A6NHN0 338-473, looked up)
chain: B1 chain with A80E, D88A
notes: gC1q (C1q-like) domain of human otolin-1, UniProt A6NHN0, with D425A
B4: dOtolC1q D432A (domain or fragment, zebrafish (Danio rerio), UniProt A5PN28 351-488, looked up)
chain: AVQKRSAFSVGLFPSRSFPPPGLPIRFDKIIYNEEAHWDPNASKFNCTHGGVYVFSYYITVRNRPLRAALVVNGIRKLRTRASLYGQDIDQASNMAVLRLSSGDQVWLETLRDWNGVYSSSEDDSTFSGFLLYADATK
notes: gC1q (C1q-like) domain of zebrafish otolin-1, UniProt A5PN28, with D432A; Same construct as m6 with the mutation
B5: dOtolC1q D432A D440A (domain or fragment, zebrafish (Danio rerio), UniProt A5PN28 351-488, looked up)
chain: B4 chain with D90A
notes: gC1q (C1q-like) domain of zebrafish otolin-1, UniProt A5PN28, with D432A and D440A; Same construct as m6 with the two mutations; also called double mutant
B6: dOtolC1q D440A (domain or fragment, zebrafish (Danio rerio), UniProt A5PN28 351-488, looked up)
chain: B4 chain with A82D, D90A
notes: gC1q (C1q-like) domain of zebrafish otolin-1, UniProt A5PN28, with D440A; Same construct as m6 with the mutation

Target: the molecule itself
Assay: AUC; sedimentation velocity, c(s) analysis in SEDFIT; sevenfold (hOtolC1q forms) or 14-fold (dOtolC1q forms) molar excess of TbCl3; protein 0.20-0.25 mg/mL; self-association of the gC1q domain into trimers

Row | Protein | stoichiometry N
1 | B1 | 3
2 | B2 | 3
3 | B3 | 3
4 | B4 | 3
5 | B5 | 3
6 | B6 | 3
